From patent publication US20020137213A1 (published 2002)

T1: coxsackie adenovirus receptor (CAR), human, on HeLa cells (human, UniProt P78310 20-365)
T1 sequence: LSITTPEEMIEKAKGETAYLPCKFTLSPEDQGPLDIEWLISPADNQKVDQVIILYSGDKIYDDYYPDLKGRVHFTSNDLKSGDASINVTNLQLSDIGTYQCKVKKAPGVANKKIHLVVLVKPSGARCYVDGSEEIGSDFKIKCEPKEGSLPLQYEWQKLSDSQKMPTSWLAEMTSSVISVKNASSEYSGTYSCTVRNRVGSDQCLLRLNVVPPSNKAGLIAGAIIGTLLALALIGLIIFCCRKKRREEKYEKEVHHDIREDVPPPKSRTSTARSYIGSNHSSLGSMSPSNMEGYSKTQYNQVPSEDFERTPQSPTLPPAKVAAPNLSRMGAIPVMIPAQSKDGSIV


The molecules below were run against T1, coxsackie adenovirus receptor (CAR), … (assay: cell-based or functional assay).

Row | Molecule | Mean % wt βgal activity, transduction of Hela cells [% wt]
1 | wildtype Ad5 fiber protein (other) MKRARPSEDTFNPVYPYDTETGPPTVPFLTPPFVSPNGFQESPPGVLSLRLSEPLVTSNGMLALKMGNGLSLDEAGNLTSQNVTTVSPPLKKTKSNINLEISAPLTVTSEALTVAAAAPLMVAGNTLTMQSQAPLTVHDSKLSIATQGPLTVSEGKLALQTSGPLTTTDSSTLTITASPPLTTATGSLGIDLKEPIYTQNGKLGLKYGAPLHVTDDLNTLTVATGPGVTINNTSLQTKVTGALGFDSQGNMQLNVAGGLRIDSQNRRLILDVSYPFDAQNQLNLRLGQGPLFINSAHNLDINYNKGLYLFTASNNSKKLEVNLSTAKGLMFDATAIAINAGDGLEFGSPNAPNTNPLKTKIGHGLEFDSNKAMVPKLGTGLSFDSTGAITVGNKNNDKLTLWTTPAPSPNCRLNAEKDAKLTLVLTKCGSQILATVSVLAVKGSLAPISGTVQSAHLIIRFDENGVLLNNSFLDPEYWNFRNGDLTEGTAYTNAVGFMPNLSAYPKSHGKTAKSNIVSQVYLNGDKTKPVTLTITLNGTQETGDTTPSAYSMSFSWDWSGHNYINEIFATSSYTFSYIAQE | 100
2 | KO4+5 mutant Ad5 fiber protein (ΔG509, K510, ΔG538, T539) (other) MKRARPSEDTFNPVYPYDTETGPPTVPFLTPPFVSPNGFQESPPGVLSLRLSEPLVTSNGMLALKMGNGLSLDEAGNLTSQNVTTVSPPLKKTKSNINLEISAPLTVTSEALTVAAAAPLMVAGNTLTMQSQAPLTVHDSKLSIATQGPLTVSEGKLALQTSGPLTTTDSSTLTITASPPLTTATGSLGIDLKEPIYTQNGKLGLKYGAPLHVTDDLNTLTVATGPGVTINNTSLQTKVTGALGFDSQGNMQLNVAGGLRIDSQNRRLILDVSYPFDAQNQLNLRLGQGPLFINSAHNLDINYNKGLYLFTASNNSKKLEVNLSTAKGLMFDATAIAINAGDGLEFGSPNAPNTNPLKTKIGHGLEFDSNKAMVPKLGTGLSFDSTGAITVGNKNNDKLTLWTTPAPSPNCRLNAEKDAKLTLVLTKCGSQILATVSVLAVKGSLAPISGTVQSAHLIIRFDENGVLLNNSFLDPEYWNFRNGDLTEGTAYTNAVGFMPNLSAYPKSHTAKSNIVSQVYLNGDKTKPVTLTITLNQETGDTTPSAYSMSFSWDWSGHNYINEIFATSSYTFSYIAQE | 91.1

The molecules below were run against coxsackie adenovirus receptor (CAR), human, on HeLa cells (human) (UniProt P78310) (assay: cell-based or functional assay).

Row | Molecule | Mean % wt βgal activity, transduction of Hela cells [% wt] | Representative avg βgal activity (RLU/ug protein), transduction of Hela cells at 1000 particles per cell (RLU/ug protein) | fold reduction in fiber-mediated gene transfer, Hela cells [fold] | fold reduction of β-galactosidase activity against wildtype fiber, Hela cells [fold] | decrease in transduction efficiency, Hela cells [fold]
3 | KO1+2 mutant Ad5 fiber protein (S408E, P409A, ΔV441, K442) (from UniProt P11818 1-581) | 0.1 | 472 | 1000 | 1000 | –
4 | KO5 mutant Ad5 fiber protein (ΔG538, T539) (from UniProt P11818 1-581) | 58.3 | 331000 | – | – | –
5 | KO9 mutant Ad5 fiber protein (V466H) (from UniProt P11818 1-581) | 80.9 | 391000 | – | – | –
6 | KO11 mutant Ad5 fiber protein (Δ404-581, knob replaced by GCN4 isoleucine 31 amino acid peptide) (from UniProt P11818 1-403) | 0.8 | 4520 | – | 125 | –
7 | KO4 mutant Ad5 fiber protein (ΔG509, K510) (from UniProt P11818 1-581) | 38.2 | 213000 | – | – | –
8 | KO2c mutant Ad5 fiber protein (V441A, K442A) (from UniProt P11818 1-581) | 8.5 | 53300 | 12 | – | –
9 | KO2 mutant Ad5 fiber protein (ΔV441, K442) (from UniProt P11818 1-581) | 0.6 | 3320 | – | 167 | > 160
10 | KO2b mutant Ad5 fiber protein (ΔK442) (from UniProt P11818 1-581) | 8.3 | 44400 | – | – | –
11 | KO8 mutant Ad5 fiber protein (N464T) (from UniProt P11818 1-581) | 92.6 | 470000 | – | – | –
12 | KO1 mutant Ad5 fiber protein (S408E, P409A) (from UniProt P11818 1-581) | 1.4 | 7620 | – | 70 | –
13 | KO2a mutant Ad5 fiber protein (ΔV441) (from UniProt P11818 1-581) | 0.6 | 4000 | – | 167 | > 160
14 | KO10 mutant Ad5 fiber protein (P505A) (from UniProt P11818 1-581) | 79.6 | 447000 | – | – | –
15 | KO3 mutant Ad5 fiber protein (R460E) (from UniProt P11818 1-581) | 63.3 | 359000 | – | – | –
